Tests used:
[1] = biological target: YY1 cellular transcription factor, endogenous in LCLs (UniProt P25490); assay: co-immunoprecipitation (FLAG-EBNA-LP IP, YY1 blot, band signal quantified); settings: 50% IP lanes; LPKO LCLs (Donor 4) trans-complemented; parent: 1.0
[2] = biological target: YY1 cellular transcription factor, endogenous in LCLs (UniProt P25490); assay: co-immunoprecipitation (YY1 IP, EBNA-LP blot, band signal quantified); settings: 50% IP lanes; trans-complemented LPKO LCLs; parent: 1

Sequence of UniProt P25490 (P25490 whole entry): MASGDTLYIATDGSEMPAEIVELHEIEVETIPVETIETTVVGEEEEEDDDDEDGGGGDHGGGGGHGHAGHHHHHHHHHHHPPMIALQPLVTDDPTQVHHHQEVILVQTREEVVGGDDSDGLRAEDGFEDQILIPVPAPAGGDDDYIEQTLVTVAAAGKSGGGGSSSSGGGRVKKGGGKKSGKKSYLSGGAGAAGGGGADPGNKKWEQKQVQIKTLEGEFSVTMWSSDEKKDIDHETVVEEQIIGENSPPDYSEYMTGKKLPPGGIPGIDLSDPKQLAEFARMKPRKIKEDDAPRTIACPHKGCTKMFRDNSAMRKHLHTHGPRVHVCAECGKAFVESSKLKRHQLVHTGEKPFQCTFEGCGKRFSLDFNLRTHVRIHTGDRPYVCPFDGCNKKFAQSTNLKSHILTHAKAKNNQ

Work on “FLAG-EBNA-LP wild type (B95-8) with four W domains, from the trans-complementation vector W:L25A; W:L28A; W:L29A (in each of the four W domains); Y:L13A; Y:L17A; Y:L18A” yielded a response [1] of 0.01 and a response [2] of 0.

Reference: paper PMC11318927
